Experiment in all cases: SPR, mAb captured, C2 mutant analyte;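 further: Anti-C2 mAbs captured on goat anti-human IgG Biacore CM5 chips, alanine or serine C2 surface mutants flowed over at 37 °C, double-referenced sensorgrams fitted to a 1:1 binding model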
A general note: SPR reads the build-up and loss of mass on a sensor chip optically.

One assay has as its target T1, human C2 N380A (human, UniProt P06681 21-752).
T1 sequence: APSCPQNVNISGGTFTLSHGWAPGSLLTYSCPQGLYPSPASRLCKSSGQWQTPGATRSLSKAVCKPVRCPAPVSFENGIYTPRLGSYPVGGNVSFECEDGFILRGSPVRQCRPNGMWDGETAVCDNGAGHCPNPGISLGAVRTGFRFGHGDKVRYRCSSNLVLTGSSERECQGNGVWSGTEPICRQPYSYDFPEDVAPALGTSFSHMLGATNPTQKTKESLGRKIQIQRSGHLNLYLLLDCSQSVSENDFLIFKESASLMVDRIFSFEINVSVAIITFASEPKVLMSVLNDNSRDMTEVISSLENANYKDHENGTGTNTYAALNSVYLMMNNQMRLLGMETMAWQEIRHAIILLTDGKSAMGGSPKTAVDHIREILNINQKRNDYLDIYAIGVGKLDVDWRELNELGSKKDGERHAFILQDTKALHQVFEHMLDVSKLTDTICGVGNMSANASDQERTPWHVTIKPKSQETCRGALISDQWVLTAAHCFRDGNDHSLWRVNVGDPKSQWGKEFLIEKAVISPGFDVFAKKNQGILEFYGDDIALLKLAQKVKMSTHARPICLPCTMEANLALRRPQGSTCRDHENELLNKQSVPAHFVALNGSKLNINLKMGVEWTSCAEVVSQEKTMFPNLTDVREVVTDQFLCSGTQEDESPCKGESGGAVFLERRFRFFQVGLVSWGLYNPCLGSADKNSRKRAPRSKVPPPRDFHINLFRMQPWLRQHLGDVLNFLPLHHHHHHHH

Another assay concerns the target T2, human C2 D419A (human, UniProt P06681 21-752).
T2 sequence: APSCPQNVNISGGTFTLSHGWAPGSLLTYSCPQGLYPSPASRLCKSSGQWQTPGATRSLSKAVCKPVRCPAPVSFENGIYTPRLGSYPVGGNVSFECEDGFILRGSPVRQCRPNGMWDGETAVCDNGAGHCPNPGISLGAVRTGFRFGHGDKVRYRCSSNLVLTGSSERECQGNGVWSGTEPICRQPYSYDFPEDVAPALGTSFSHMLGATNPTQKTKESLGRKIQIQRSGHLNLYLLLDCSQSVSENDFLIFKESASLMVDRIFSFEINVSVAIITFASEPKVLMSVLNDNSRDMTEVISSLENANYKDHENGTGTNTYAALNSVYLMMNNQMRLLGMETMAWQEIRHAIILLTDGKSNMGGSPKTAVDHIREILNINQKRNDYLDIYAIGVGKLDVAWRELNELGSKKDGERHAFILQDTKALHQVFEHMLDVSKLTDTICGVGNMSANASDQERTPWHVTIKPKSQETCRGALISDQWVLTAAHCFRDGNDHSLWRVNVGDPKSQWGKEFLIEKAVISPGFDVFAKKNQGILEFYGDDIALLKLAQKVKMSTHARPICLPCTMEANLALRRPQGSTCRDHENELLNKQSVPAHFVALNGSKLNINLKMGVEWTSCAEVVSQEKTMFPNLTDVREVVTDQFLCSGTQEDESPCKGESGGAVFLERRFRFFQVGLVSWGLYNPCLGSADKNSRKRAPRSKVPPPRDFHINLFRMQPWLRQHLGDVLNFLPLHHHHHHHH

The target in the next assay is T3, human C2 K430A (human, UniProt P06681 21-752).
T3 sequence: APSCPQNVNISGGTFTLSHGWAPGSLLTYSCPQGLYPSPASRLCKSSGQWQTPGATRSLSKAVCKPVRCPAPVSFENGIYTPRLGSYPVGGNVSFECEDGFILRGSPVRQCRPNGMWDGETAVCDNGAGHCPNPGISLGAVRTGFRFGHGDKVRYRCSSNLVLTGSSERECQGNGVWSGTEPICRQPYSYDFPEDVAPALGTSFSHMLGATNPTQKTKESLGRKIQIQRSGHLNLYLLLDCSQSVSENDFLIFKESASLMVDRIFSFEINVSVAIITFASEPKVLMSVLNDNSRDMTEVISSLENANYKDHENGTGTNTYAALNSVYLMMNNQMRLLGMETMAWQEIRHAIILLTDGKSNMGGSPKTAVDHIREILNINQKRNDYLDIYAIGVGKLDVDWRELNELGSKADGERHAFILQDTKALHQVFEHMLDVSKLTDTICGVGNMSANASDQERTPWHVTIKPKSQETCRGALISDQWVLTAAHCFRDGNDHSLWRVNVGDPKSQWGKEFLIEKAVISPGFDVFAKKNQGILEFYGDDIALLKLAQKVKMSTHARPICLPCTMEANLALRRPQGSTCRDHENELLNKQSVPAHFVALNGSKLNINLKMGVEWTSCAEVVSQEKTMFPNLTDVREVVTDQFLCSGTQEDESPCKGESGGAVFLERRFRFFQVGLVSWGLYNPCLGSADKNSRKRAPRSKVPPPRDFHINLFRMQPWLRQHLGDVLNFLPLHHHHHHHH

The next assay has as its target T4, human C2 K443A (human, UniProt P06681 21-752).
T4 sequence: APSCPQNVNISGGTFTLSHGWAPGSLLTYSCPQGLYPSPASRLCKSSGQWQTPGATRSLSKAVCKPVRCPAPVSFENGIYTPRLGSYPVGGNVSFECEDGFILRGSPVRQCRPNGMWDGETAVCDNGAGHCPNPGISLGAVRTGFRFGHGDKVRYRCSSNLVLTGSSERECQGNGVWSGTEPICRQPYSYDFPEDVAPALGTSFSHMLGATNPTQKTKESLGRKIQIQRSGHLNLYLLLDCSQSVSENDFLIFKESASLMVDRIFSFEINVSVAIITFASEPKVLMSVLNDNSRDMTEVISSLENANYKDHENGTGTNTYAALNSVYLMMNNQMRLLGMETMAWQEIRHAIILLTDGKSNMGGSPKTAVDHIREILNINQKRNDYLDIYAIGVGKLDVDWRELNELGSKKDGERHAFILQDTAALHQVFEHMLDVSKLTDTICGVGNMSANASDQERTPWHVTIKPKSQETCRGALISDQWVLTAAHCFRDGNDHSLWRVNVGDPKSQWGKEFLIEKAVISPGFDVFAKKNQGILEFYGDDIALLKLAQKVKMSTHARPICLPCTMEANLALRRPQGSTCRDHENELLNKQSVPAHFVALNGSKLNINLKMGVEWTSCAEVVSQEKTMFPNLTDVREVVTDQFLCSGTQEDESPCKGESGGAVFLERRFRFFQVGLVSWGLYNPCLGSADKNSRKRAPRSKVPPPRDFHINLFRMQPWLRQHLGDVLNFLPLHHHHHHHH

B1: RF16-214 (antibody, V domains shown)
VH: EVQLLESGGGLVQPGGSLRLSCAASGFTFSWYQMMWVRQAPGKGLEWVSRIYPSGGGTAYADSVKGRFTISRDNSKNTLYLQMNSLRAEDTAVYYCARDAGYGDNWGQGTLVTVSS
VL: QSALTQPPSVSVSPGQTASITCSGDKLGEKYASWYQQKAGQSPVMVIYQDRKRPSGIPERFSGSNSGNTATLTISGTQAMDEADYYCQAWDTRAVVFGGGTKLTVLG
By Kd is commonly meant the free concentration of one partner at which half of the binding sites on the other are occupied at equilibrium, for simple one-to-one binding. High values mean lower affinity, low ones higher affinity. With B1, the values for the Kd with human C2 N380A, in the assay with human C2 D419A and with human C2 K430A were 58.8 nM, 70.7 nM and 308 nM, respectively. In the assay with human C2 K443A, the binding result was “no binding”.

The record behind these values is patent publication US20220332804A1 (CSL INNOVATION, published 2022).
